Results taken from patent US10941182 (Amgen, dated 2021).
Starred links: 1 amine or outer side, 2 acyl side, 3 side chain; linkers in the order of their positions; H or OH if unused. Non-standard residues stand in square brackets, D forms with d. Primed or numbered codes have the meaning given here. *: point of attachment. dBip = N[C@H](Cc1ccc(-c2ccccc2)cc1)C(=O)O; Oic = O=C(O)[C@@H]1C[C@@H]2CCCC[C@@H]2N1; Phe(4-Cl) = N[C@@H](Cc1ccc(Cl)cc1)C(=O)O; dPhe(4-Cl) = N[C@H](Cc1ccc(Cl)cc1)C(=O)O; Heptadecanoyl = CCCCCCCCCCCCCCCCC(=O)*; Phe(4-I) = N[C@@H](Cc1ccc(I)cc1)C(=O)O; γGlu = O=C(O)[C@H](CCC(=O)[*:2])N[*:1]; 2Nal = N[C@@H](Cc1ccc2ccccc2c1)C(=O)O; NMeR = CN[C@@H](CCCNC(=N)N)C(=O)O; Tridecanoyl = CCCCCCCCCCCCC(=O)*; hArg = N=C(N)NCCCC[C@H](N)C(=O)O; Tic = O=C(O)[C@@H]1Cc2ccccc2CN1; Cha = N[C@@H](CC1CCCCC1)C(=O)O; NMeL = CN[C@@H](CC(C)C)C(=O)O; Nle = CCCC[C@H](N)C(=O)O; Orn = NCCC[C@H](N)C(=O)O; Pip′ = not defined here; AEEA = NCCOCCOCC(=O)O

T1: rat APJ receptor (rat, UniProt Q9JHG3 1-377)
T1 sequence (looked up): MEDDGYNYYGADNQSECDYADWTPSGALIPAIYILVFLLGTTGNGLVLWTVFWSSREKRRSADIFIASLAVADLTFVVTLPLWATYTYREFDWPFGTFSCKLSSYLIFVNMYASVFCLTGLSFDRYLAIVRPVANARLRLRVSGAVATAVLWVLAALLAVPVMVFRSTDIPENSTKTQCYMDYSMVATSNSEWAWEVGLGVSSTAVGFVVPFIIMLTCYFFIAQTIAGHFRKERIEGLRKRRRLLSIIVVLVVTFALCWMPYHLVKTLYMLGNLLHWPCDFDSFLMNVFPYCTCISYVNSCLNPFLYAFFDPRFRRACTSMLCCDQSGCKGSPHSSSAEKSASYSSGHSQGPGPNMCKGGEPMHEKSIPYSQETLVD

T2: human APJ receptor (human, UniProt P35414 1-380)
T2 sequence (looked up): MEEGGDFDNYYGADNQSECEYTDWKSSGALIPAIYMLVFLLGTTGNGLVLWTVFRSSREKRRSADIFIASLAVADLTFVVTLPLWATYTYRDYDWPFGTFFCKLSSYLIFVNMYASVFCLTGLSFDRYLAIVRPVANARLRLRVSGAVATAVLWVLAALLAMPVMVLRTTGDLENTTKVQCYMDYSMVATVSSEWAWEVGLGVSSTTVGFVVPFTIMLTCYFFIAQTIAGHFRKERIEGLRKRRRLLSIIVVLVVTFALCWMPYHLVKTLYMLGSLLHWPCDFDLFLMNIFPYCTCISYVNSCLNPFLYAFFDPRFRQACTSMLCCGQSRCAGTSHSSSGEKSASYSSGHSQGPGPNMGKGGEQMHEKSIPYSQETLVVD

B1: apelin polypeptide SEQ ID NO: 238 (peptide)
peptide: Heptadecanoyl-[γGlu][AEEA][AEEA]Q[dR]P[NMeR][Cha]SHKG[Oic][Nle]P[Tic]-OH
SMILES: CCCCCCCCCCCCCCCCC(=O)N[C@@H](CCC(=O)NCCOCCOCC(=O)NCCOCCOCC(=O)N[C@@H](CCC(N)=O)C(=O)N[C@H](CCCNC(=N)N)C(=O)N1CCC[C@H]1C(=O)N(C)[C@@H](CCCNC(=N)N)C(=O)N[C@@H](CC1CCCCC1)C(=O)N[C@@H](CO)C(=O)N[C@@H](Cc1c[nH]cn1)C(=O)N[C@@H](CCCCN)C(=O)NCC(=O)N1[C@H](C(=O)N[C@@H](CCCC)C(=O)N2CCC[C@H]2C(=O)N2Cc3ccccc3C[C@H]2C(=O)O)C[C@@H]2CCCC[C@@H]21)C(=O)O
B2: apelin polypeptide SEQ ID NO: 243 (peptide)
peptide: Heptadecanoyl-[γGlu][AEEA][AEEA][hArg]Q[dR]P[NMeR][Cha]SHKG[Oic][Nle]P[Tic]-OH
SMILES: CCCCCCCCCCCCCCCCC(=O)N[C@@H](CCC(=O)NCCOCCOCC(=O)NCCOCCOCC(=O)N[C@@H](CCCCNC(=N)N)C(=O)N[C@@H](CCC(N)=O)C(=O)N[C@H](CCCNC(=N)N)C(=O)N1CCC[C@H]1C(=O)N(C)[C@@H](CCCNC(=N)N)C(=O)N[C@@H](CC1CCCCC1)C(=O)N[C@@H](CO)C(=O)N[C@@H](Cc1c[nH]cn1)C(=O)N[C@@H](CCCCN)C(=O)NCC(=O)N1[C@H](C(=O)N[C@@H](CCCC)C(=O)N2CCC[C@H]2C(=O)N2Cc3ccccc3C[C@H]2C(=O)O)C[C@@H]2CCCC[C@@H]21)C(=O)O
B3: apelin polypeptide SEQ ID NO: 229 (peptide)
peptide: Tridecanoyl-[γGlu][AEEA][AEEA][hArg]Q[dR]P[NMeR][Cha]SHKG[Oic][Nle]P[Phe(4-Cl)]-OH
SMILES: CCCCCCCCCCCCC(=O)N[C@@H](CCC(=O)NCCOCCOCC(=O)NCCOCCOCC(=O)N[C@@H](CCCCNC(=N)N)C(=O)N[C@@H](CCC(N)=O)C(=O)N[C@H](CCCNC(=N)N)C(=O)N1CCC[C@H]1C(=O)N(C)[C@@H](CCCNC(=N)N)C(=O)N[C@@H](CC1CCCCC1)C(=O)N[C@@H](CO)C(=O)N[C@@H](Cc1c[nH]cn1)C(=O)N[C@@H](CCCCN)C(=O)NCC(=O)N1[C@H](C(=O)N[C@@H](CCCC)C(=O)N2CCC[C@H]2C(=O)N[C@@H](Cc2ccc(Cl)cc2)C(=O)O)C[C@@H]2CCCC[C@@H]21)C(=O)O
B4: apelin polypeptide SEQ ID NO: 257 (peptide)
peptide: Tridecanoyl-[γGlu][AEEA][AEEA][Orn]F[hArg][hArg]QRP[hArg][NMeL]SHKG[Oic][Nle][2Nal]-OH
SMILES: CCCCCCCCCCCCC(=O)N[C@@H](CCC(=O)NCCOCCOCC(=O)NCCOCCOCC(=O)N[C@@H](CCCN)C(=O)N[C@@H](Cc1ccccc1)C(=O)N[C@@H](CCCCNC(=N)N)C(=O)N[C@@H](CCCCNC(=N)N)C(=O)N[C@@H](CCC(N)=O)C(=O)N[C@@H](CCCNC(=N)N)C(=O)N1CCC[C@H]1C(=O)N[C@@H](CCCCNC(=N)N)C(=O)N(C)[C@@H](CC(C)C)C(=O)N[C@@H](CO)C(=O)N[C@@H](Cc1c[nH]cn1)C(=O)N[C@@H](CCCCN)C(=O)NCC(=O)N1[C@H](C(=O)N[C@@H](CCCC)C(=O)N[C@@H](Cc2ccc3ccccc3c2)C(=O)O)C[C@@H]2CCCC[C@@H]21)C(=O)O
B5: apelin polypeptide SEQ ID NO: 237 (peptide)
peptide: Heptadecanoyl-[γGlu][AEEA][AEEA][dQ][hArg]P[NMeR][Cha]SHKG[Oic][Nle]P[dPhe(4-Cl)]-OH
SMILES: CCCCCCCCCCCCCCCCC(=O)N[C@@H](CCC(=O)NCCOCCOCC(=O)NCCOCCOCC(=O)N[C@H](CCC(N)=O)C(=O)N[C@@H](CCCCNC(=N)N)C(=O)N1CCC[C@H]1C(=O)N(C)[C@@H](CCCNC(=N)N)C(=O)N[C@@H](CC1CCCCC1)C(=O)N[C@@H](CO)C(=O)N[C@@H](Cc1c[nH]cn1)C(=O)N[C@@H](CCCCN)C(=O)NCC(=O)N1[C@H](C(=O)N[C@@H](CCCC)C(=O)N2CCC[C@H]2C(=O)N[C@H](Cc2ccc(Cl)cc2)C(=O)O)C[C@@H]2CCCC[C@@H]21)C(=O)O
B6: apelin polypeptide SEQ ID NO: 244 (peptide)
peptide: Tridecanoyl-[γGlu][AEEA][AEEA]Q[dR]P[NMeR][Cha]SHKG[Oic][Nle]P[Tic]-OH
SMILES: CCCCCCCCCCCCC(=O)N[C@@H](CCC(=O)NCCOCCOCC(=O)NCCOCCOCC(=O)N[C@@H](CCC(N)=O)C(=O)N[C@H](CCCNC(=N)N)C(=O)N1CCC[C@H]1C(=O)N(C)[C@@H](CCCNC(=N)N)C(=O)N[C@@H](CC1CCCCC1)C(=O)N[C@@H](CO)C(=O)N[C@@H](Cc1c[nH]cn1)C(=O)N[C@@H](CCCCN)C(=O)NCC(=O)N1[C@H](C(=O)N[C@@H](CCCC)C(=O)N2CCC[C@H]2C(=O)N2Cc3ccccc3C[C@H]2C(=O)O)C[C@@H]2CCCC[C@@H]21)C(=O)O
B7: apelin polypeptide SEQ ID NO: 227 (peptide)
peptide: Tridecanoyl-[γGlu][AEEA][AEEA]Q[hArg]P[dR][NMeL]SHKG[Oic][Nle]P[dBip]-OH
SMILES: CCCCCCCCCCCCC(=O)N[C@@H](CCC(=O)NCCOCCOCC(=O)NCCOCCOCC(=O)N[C@@H](CCC(N)=O)C(=O)N[C@@H](CCCCNC(=N)N)C(=O)N1CCC[C@H]1C(=O)N[C@H](CCCNC(=N)N)C(=O)N(C)[C@@H](CC(C)C)C(=O)N[C@@H](CO)C(=O)N[C@@H](Cc1c[nH]cn1)C(=O)N[C@@H](CCCCN)C(=O)NCC(=O)N1[C@H](C(=O)N[C@@H](CCCC)C(=O)N2CCC[C@H]2C(=O)N[C@H](Cc2ccc(-c3ccccc3)cc2)C(=O)O)C[C@@H]2CCCC[C@@H]21)C(=O)O
B8: apelin polypeptide SEQ ID NO: 228 (peptide)
peptide: Tridecanoyl-[γGlu][AEEA][AEEA]Q[hArg]P[dR][Cha]SHKG[Oic][Nle]P[Phe(4-Cl)]-OH
SMILES: CCCCCCCCCCCCC(=O)N[C@@H](CCC(=O)NCCOCCOCC(=O)NCCOCCOCC(=O)N[C@@H](CCC(N)=O)C(=O)N[C@@H](CCCCNC(=N)N)C(=O)N1CCC[C@H]1C(=O)N[C@H](CCCNC(=N)N)C(=O)N[C@@H](CC1CCCCC1)C(=O)N[C@@H](CO)C(=O)N[C@@H](Cc1c[nH]cn1)C(=O)N[C@@H](CCCCN)C(=O)NCC(=O)N1[C@H](C(=O)N[C@@H](CCCC)C(=O)N2CCC[C@H]2C(=O)N[C@@H](Cc2ccc(Cl)cc2)C(=O)O)C[C@@H]2CCCC[C@@H]21)C(=O)O
B9: apelin polypeptide SEQ ID NO: 242 (peptide)
peptide: Heptadecanoyl-[γGlu][AEEA][AEEA][hArg][dQ][hArg]P[NMeR][Cha]SHKG[Oic][Nle]P[dPhe(4-Cl)]-OH
SMILES: CCCCCCCCCCCCCCCCC(=O)N[C@@H](CCC(=O)NCCOCCOCC(=O)NCCOCCOCC(=O)N[C@@H](CCCCNC(=N)N)C(=O)N[C@H](CCC(N)=O)C(=O)N[C@@H](CCCCNC(=N)N)C(=O)N1CCC[C@H]1C(=O)N(C)[C@@H](CCCNC(=N)N)C(=O)N[C@@H](CC1CCCCC1)C(=O)N[C@@H](CO)C(=O)N[C@@H](Cc1c[nH]cn1)C(=O)N[C@@H](CCCCN)C(=O)NCC(=O)N1[C@H](C(=O)N[C@@H](CCCC)C(=O)N2CCC[C@H]2C(=O)N[C@H](Cc2ccc(Cl)cc2)C(=O)O)C[C@@H]2CCCC[C@@H]21)C(=O)O

target: T1, rat APJ receptor; assay: cell-based or functional assay

Binder	EC50 Rat APJ Receptor [nM]
Ac-[hArg][hArg][dQ][hArg]P[dR][NMeL]SHKG[Oic][Phe(4-I)]P[dBip]-OH [apelin polypeptide SEQ ID NO: 19]	0.757
B1	28.5
B2	10.3
B3	3.29
B4	3.14
B5	4.89
B6	281
B7	97.5
B8	7.91
B9	2.27
Heptadecanoyl-[γGlu][AEEA][AEEA]Q[dR]P[NMeR][Cha]SHKG[Oic][Nle][Pip′][Phe(4-Cl)]-OH [apelin polypeptide SEQ ID NO: 234]	12.5
Heptadecanoyl-[γGlu][AEEA][AEEA][hArg]Q[dR]P[NMeR][Cha]SHKG[Oic][Nle][Pip′][Phe(4-Cl)]-OH [apelin polypeptide SEQ ID NO: 239]	8.61

target: T2, human APJ receptor; assay: cell-based or functional assay

Binder	EC50 Human APJ Receptor [nM]
Ac-[hArg][hArg][dQ][hArg]P[dR][NMeL]SHKG[Oic][Phe(4-I)]P[dBip]-OH [apelin polypeptide SEQ ID NO: 19]	0.533
B1	6.68
B2	1.19
B3	0.235
B4	1.49
B5	4.96
B6	10.3
B7	8.77
B8	0.484
B9	2.19
Heptadecanoyl-[γGlu][AEEA][AEEA]Q[dR]P[NMeR][Cha]SHKG[Oic][Nle][Pip′][Phe(4-Cl)]-OH [apelin polypeptide SEQ ID NO: 234]	6.05
Heptadecanoyl-[γGlu][AEEA][AEEA][hArg]Q[dR]P[NMeR][Cha]SHKG[Oic][Nle][Pip′][Phe(4-Cl)]-OH [apelin polypeptide SEQ ID NO: 239]	1.45
